# Test results published in paper PMC10326071.
# Target: middle domain of human Paip1 (Paip1M) (human) (UniProt Q9H074)
# Experiment: BLI; […]; 1x PBS pH 7.4, 0.1% surfactant P20, 0.1% BSA, 500 mM NaCl; 25 C; global fit, 1:1 model
# Sequence of middle domain of human Paip1 (Paip1M) (human) (Q9H074 157-375): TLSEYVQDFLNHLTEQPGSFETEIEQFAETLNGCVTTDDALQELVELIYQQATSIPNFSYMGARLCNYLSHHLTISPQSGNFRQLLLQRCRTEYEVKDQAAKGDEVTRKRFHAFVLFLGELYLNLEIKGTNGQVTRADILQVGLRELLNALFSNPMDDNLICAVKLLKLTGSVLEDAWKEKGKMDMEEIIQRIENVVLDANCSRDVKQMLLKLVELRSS
substance,measurement,value
SARS-CoV-2 SUD-core-CC (domain or fragment),Kd,7.2 µM
